Assay results from the supplement of paper PMC12042874.
± gives the uncertainty stated by the source.

Experiments:
[1] = amyloid nucleation score (Sup35N fusion, yeast selection) (log enrichment); library NNK1; higher = more nucleation; inactive = no reads after selection
In short: (§1)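 On medium lacking adenine and uracil, psi-negative yeast expressing peptides of 20 random codons fused to Sup35N were grown 7 days at 30°C after a 24-hour induction with 100 μM copper sulfate. Illumina sequencing of input and output plasmid inserts gave the reads, and sequences under 100 input reads were excluded. The nucleation score is the DiMSum log enrichment of output over input reads, centred on the mode score of non-aggregating sequences.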

[2] = amyloid nucleation score (Sup35N fusion, yeast selection) (log enrichment); library NNK2; higher = more nucleation; inactive = no reads after selection
In short: as §1

| Substance | amyloid nucleation score [1] | amyloid nucleation score [2] |
| --- | --- | --- |
| AAAFSSGGKLFHAGCWRRMM | -0.681 ± 1.6 | – |
| AACLCLYAFGRYVVTRCYGR | -0.068 ± 0.69 | – |
| AAIAWVLN | 0.112 ± 0.58 | – |
| AALENAGWLMAMANKRPSKR | -0.614 ± 0.64 | – |
| AAMAYFWADRLKHGFYTW | 4.74 ± 0.092 | – |
| AAMYSLICNPI | 0.518 ± 0.3 | – |
| AASRLVRDDWTLISGHPSKA | 0.844 ± 0.73 | – |
| ACELGFLPKHRHRGLVFVEG | -0.725 ± 0.8 | – |
| ACHQGGMTSPNTRSTLFRVW | 0.8 ± 0.51 | – |
| ACTYYIWVLSCAGPRAGGKE | 7.257 ± 0.048 | – |
| ACVLTAKMAARRIHMWQGLF | -0.744 ± 0.84 | – |
| ACWFMCFYRFPAAWY | 0.079 ± 0.3 | – |
| ADVATMSRGEKGASGGLK | 0.508 ± 0.54 | – |
| AEAISSYHGWSYYLHHTPFS | 0.654 ± 1.2 | – |
| AEGCRIPGRQSYRYGDICPR | -0.373 ± 0.39 | – |
| AELILFIVLELMKRAFLSS | -0.795 ± 0.4 | – |
| AESSLLSLIVFNTNYFEAGQ | 6.753 ± 0.046 | – |
| YLEMMYVAFNFFNGIYCLFY | – | inactive |
| YLFFYNMSRDRSDTWCEHAV | – | 3.5 ± 0.094 |
| YLKDPTFMGVNAFCVVLHFV | – | 6.01 ± 0.077 |
| YLLFNLHAVYLLVSGEPSPC | – | 0.405 ± 0.39 |
| YLLNLEF | – | inactive |
| YLLRNWLPGKVGCHQFLILW | – | 0.757 ± 0.39 |
| YLNYNIMS | – | inactive |
| YLPTGELIHHYKTSIVLDSA | – | -0.458 ± 0.41 |

| Substance | amyloid nucleation score [1] | amyloid nucleation score [2] |
| --- | --- | --- |
| YLRLHYAFSGVNNKGIESGC | – | inactive |
| YLSNKT | – | -0.515 ± 0.29 |
| YLSVPSGQSGGDGFNDESSV | – | inactive |
| YLTRAIIVFIS | – | 3.66 ± 0.062 |
| YLVDTSCRVGWTDVYFPVRV | – | inactive |
| YLYGCGNMVVIWRSGRQMDI | – | -1.42 ± 0.49 |
| YMFNSWYGLSSLWGKSKKMS | – | -0.538 ± 0.26 |
| YMKKSMF | – | -0.095 ± 1.1 |
| YMLMREASGLLRPGAEMWFN | – | -0.177 ± 0.45 |
| YMMSRASSVIIEREYK | – | 0.479 ± 0.74 |
| YMPPSCMSP | – | inactive |
| YMSGILASIRKSILQGRSRE | – | -1.41 ± 0.49 |
| YMTSD | – | -0.464 ± 0.41 |
| YMVCLRSGSIPVIDLPWYSL | – | -0.12 ± 1 |
| YMVDIGSHYKVCVMFHWTFS | – | -0.88 ± 0.45 |
| YMVGVSITMCCRATLNFSSM | – | 5.21 ± 0.06 |
| YMYPWGP | – | 0.693 ± 0.28 |
| YNASVDVLHY | – | -0.146 ± 1 |
| YNGTTLMMGDIGSCSFI | – | -0.787 ± 0.38 |
| YNKLRPGATCHLETWS | – | -0.614 ± 0.79 |
| YNLCWCRVIDFCLCWYCILW | – | 4.94 ± 0.081 |
| YNLESLNFMLCSLRTQGKFR | – | 0.149 ± 0.25 |
| YNLSSLLRCDLAAKTRTIFM | – | -0.575 ± 0.35 |
| YNMIYYQLNTMLVHDMIKYG | – | 3.56 ± 0.073 |
| YNRRLYRIACVGIVNVNGVG | – | 5.902 ± 0.042 |

| Substance | amyloid nucleation score [1] | amyloid nucleation score [2] |
| --- | --- | --- |
| YNSMSVSILNVYYDQPWSLS | – | 8.768 ± 0.049 |
| YNSRNIEDFFVIDLVNWLRL | – | -1.24 ± 1.1 |
| YNTVVVPDVMTGRF | – | -0.599 ± 1 |
| YNVMDVMYYAQKWLLWWSKV | – | -0.353 ± 0.41 |
| YPLGS | – | inactive |
| YPNTLFHWEAS | – | 0.359 ± 0.29 |
| YPSLNDACQP | – | -0.394 ± 1.1 |
| YPWLRIWCDRNDIEVGLVFA | – | -0.055 ± 0.79 |
| YQLRCKCSTF | – | -0.757 ± 0.41 |
| YQPRAYGKSPSIQFGQIVKQ | – | 0.106 ± 0.31 |
| YQSDLTYLE | – | -0.518 ± 0.35 |
| YQSFFVINLYNGLHTRGMRV | – | 7.701 ± 0.055 |
| YQSPCVTVVSGKRALPRGGR | – | -0.001 ± 0.28 |
| YQTWDSYVRSTCVYITCPWY | – | 7.133 ± 0.059 |
| YREHQKVRFSSLISSIGVLM | – | -0.004 ± 0.49 |
| YRGYAPIYLHLRSSYVPVAL | – | -0.319 ± 0.35 |
| YRIQKHWCQLS | – | -0.087 ± 0.76 |
| YRLFSRWAVVRFMGVGSLSF | – | -0.691 ± 0.56 |
| YRQRFVRKARSFYLWVMALP | – | -0.409 ± 0.45 |
| YRRLRTNLLWRQSRSY | – | 0.817 ± 0.54 |
| YRRRSKHAVNKGRMCA | – | 1.3 ± 0.28 |
| YRSSHYYQQSIIVFVIMHRC | – | 2.11 ± 0.3 |
| YRVFMVPTWGGS | – | 0.381 ± 0.56 |
| YSASKFTWPCIKTSKCGALC | – | -1.09 ± 0.63 |
| YSELMFTEVIYTVYYLTFLR | – | -0.797 ± 0.76 |

| Substance | amyloid nucleation score [1] | amyloid nucleation score [2] |
| --- | --- | --- |
| YSFELGDFRMEKLIRDMVKC | – | -0.932 ± 0.42 |
| YSLRLDVYYRGWADYPGLWT | – | 1.73 ± 0.18 |
| YSMICGLHCSVLFRGNSEGT | – | 4.782 ± 0.039 |
| YSMIDTNQFF | – | inactive |
| YSMRWFVGGFILGYCVCGQV | – | 6.256 ± 0.037 |
| YSRGMGVSNEMRDYFNKRDI | – | inactive |
| YSSPGSSPAFQRFGVVRRMN | – | inactive |
| YSTIKIHLPGLVVRNQSLVR | – | inactive |
| YSTYRASVGFARRGMPLPIL | – | 0.015 ± 0.76 |
| YSWVEPRSRRAVEHDS | – | 0.551 ± 0.3 |
| YSYPRS | – | inactive |
| YTGIESE | – | 0.768 ± 0.21 |
| YTHVNRWTCCSSIEICDWSY | – | 6.957 ± 0.047 |
| YTIIKWPL | – | -0.21 ± 0.79 |
| YTLFNDASRLFD | – | inactive |
| YTLFPAVLECDQVLYVSVNF | – | 6.491 ± 0.037 |
| YTNSMTHAYTVLWRYMSPTN | – | 3.52 ± 0.084 |
| YTRGTNGLWLYRWVMVRGSN | – | -0.649 ± 0.36 |
| YTSGMFFMPMQALASETPHA | – | -0.924 ± 0.61 |
| YTSSRGHYSIMGVIRMCDRL | – | 0.118 ± 0.25 |
| YTVWGKY | – | 0.288 ± 0.53 |
| YVANGPFCPDFLLLAGWYGV | – | 0.447 ± 0.53 |
| YVATMGKGLNYLSCLEDNAA | – | 0.282 ± 0.56 |
| YVCVNWTFTFLFLCLVGRSL | – | 0.36 ± 0.22 |
| YVDGFYNGERWRLVLHVWDL | – | -0.598 ± 0.39 |

| Substance | amyloid nucleation score [1] | amyloid nucleation score [2] |
| --- | --- | --- |
| YVLFFHGIMSCTPMQYQYMG | – | inactive |
| YVLSYSCLDLYSIHL | – | 5.64 ± 0.073 |
| YVNFD | – | -0.299 ± 0.48 |
| YVPMQY | – | 0.382 ± 0.53 |
| YVPPQWRIVDRNVSY | – | 0.012 ± 1 |
| YVRAGRVNVILCVSENCIGG | – | 8.27 ± 0.049 |
| YVRNFPLGLSV | – | -1.63 ± 1.1 |
| YVSMLTNLTDLTSM | – | 0.572 ± 0.33 |
| YVSNLEK | – | -0.073 ± 1 |
| YVTCCSGVGVMLFRCANLNC | – | 5.37 ± 0.082 |
| YVTFMKGIGLSVFSADIQ | – | 1.83 ± 0.2 |
| YVVVINSEQNVETFKGFL | – | inactive |
| YVWSAKHSNIDCRVES | – | 0.877 ± 0.36 |
| YWLYMVAHAPKSFIE | – | 0.509 ± 0.8 |
| YWSMSVMVNMKFPCGNCWVR | – | 2.24 ± 0.11 |
| YWYASSSSNIWYPEVCKCPV | – | -0.77 ± 0.79 |
| YYCTKASTLRSGGFRFMPMT | – | 4.9 ± 0.051 |
| YYEMFCYSCPSDRPGISNDA | – | 8.827 ± 0.035 |
| YYFWSTFGSYNYLIFCYSIL | – | -0.656 ± 1.1 |
| YYGCCMVLTEPVG | – | 6.29 ± 0.072 |
| YYGLVSGGLQYVCMFGSFIY | – | inactive |
| YYHIDYYRYWPALLGCFKYS | – | -0.898 ± 0.34 |
| YYMRRVSGLDISGRMCCKSV | – | 0.106 ± 0.42 |
| YYPGL | – | -1.45 ± 1.1 |
| YYQYGWEYARLWLIDNILHG | – | -0.064 ± 1.1 |
